Measured values: patent US20140206847A1 (PANASONIC, published 2014)

Molecular target: T1, Troponin I derived from human myocardium (human, UniProt P19429 2-210)
T1 construct: Bought protein, fixed on a CM5 chip at approximately 500 RU; also called Troponin I (purchased from Funakoshi)
Assay: SPR, Biacore T100; troponin I fixed on CM5 chip, measured similarly to the mutant protein; column head 'Association Rate Ka(M^-1)'
Protocol: Using an intermolecular interaction analyzer Biacore T100 (purchased from GE health care company), the association rate of the mutant protein was measured in accordance with the manual attached to the intermolecular interaction analyzer Biacore T100.
More particularly, Troponin I (purchased from Funakoshi) derived from human myocardium having approximately 500 RU (Resonance Unit) was fixed on a CM5 chip (purchased from GE health care company). This CM5 chip was set in the Biacore T100. Then, aqueous solutions (concentration: 100 nM, 50 nM, 25 nM, 12.5 nM, and 6.25 nM, volume: 150 microliters) containing the purified mutant protein was flowed through the Biacore T100 to measure the association rate of the mutant protein.

T1 sequence (P19429 2-210 limits assumed): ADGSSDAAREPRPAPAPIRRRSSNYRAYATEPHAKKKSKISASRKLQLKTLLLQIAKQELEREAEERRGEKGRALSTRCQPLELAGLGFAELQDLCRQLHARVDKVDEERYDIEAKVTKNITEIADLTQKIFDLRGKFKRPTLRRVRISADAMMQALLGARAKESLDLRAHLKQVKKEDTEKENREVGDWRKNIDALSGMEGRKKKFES

Ka: 5.11e+09 M⁻¹
B1: First mutant scFv antibody fragment (scFv)
scFv: DVVLTQSPLTLSVTIGQPASISCKSSQSLLDSDGKTYLNWLLQRPGQSPKRLIYLVSKLDSGVPDRFTGSGSGTDFTLKISRVEAEDLGVYYCWQGTHFPLTFGAGTKLEIKRGGGGSGGGGSGGGGSQLQLQQSGAELVRSGASVKLSCTASGFNIKDYYMNWVKQRPEQGLEWIGWIDPANGDTAYAPRFQVKADMTADKDSDTAYLQLSSLTSEDTAVYYCNADLPMDQWGQGTSVTVSSAAALESFNRNEC
notes: also called first mutant scFv antibody fragment 51; mutant first scFv antibody fragment
